Assay [1] has as its target T1, human NGF (Homo sapiens, UniProt P01138). The assay can be described thus: BIAcore affinity determination assay (kon, koff, KD of purified Fabs). The assay is classed as binding. The note with it: Fab on immobilized human NGF. On the procedure: (§1) Affinities of anti-NGF Fabs and monoclonal antibodies were determined using the BIAcore300™ surface plasmon resonance (SPR) system (BIAcore, INC, Piscaway N.J.). CM5 chips were activated with N-ethyl-N′-(3-dimethylaminopropyl)-carbodimide hydrochloride (EDC) and N-hydroxysuccinimide (NHS) according to the supplier's instructions. Human NGF was diluted into 10 mM sodium acetate pH 4.0 and injected over the activated chip at a concentration of 0.005 mg/mL. Using variable flow time across the individual chip channels, two ranges of antigen density were achieved: 100-200 response units (RU) for detailed kinetic studies and 500-600 RU for screening assays. The chip was blocked with ethanolamine. […] HBS-EP buffer (0.01M HEPES, pH 7.4, 0.15 NaCl, 3 mM EDTA, 0.005% Surfactant […]) was used as running buffer for all the BIAcore assays.
Serial dilutions (0.1-10× estimated KD) of purified Fab samples were injected for 1 min at 100 μL/min and dissociation times of up to 2 h were allowed. The concentrations of the Fab proteins were determined by ELISA and/or SDS-PAGE electrophoresis using as a standard a Fab of known concentration (as determined by amino acid analysis). Kinetic association rates (kon) and dissociation rates (koff) were obtained simultaneously by fitting the data to a 1:1 Langmuir binding model (Karlsson, R. Roos, H. Fagerstam, L. Petersson, B. (1994). Methods Enzymology 6. 99-110) using the BIAevaluation program. Equilibrium dissociation constant (KD) values were calculated as koff/kon.
The binding affinities to human NGF of Fabs E3 and 3C were measured using BIAcore analysis according to the manufacturer's instructions and as described above, except that 100 RU NGF was used on chip to prevent a rebinding effect. Briefly, several concentrations of antibodies (Fabs) were injected for 2 minutes onto a CM5 chip with 100 RU of immobilized human NGF on it, and permitted to dissociate for 1800 seconds. Mouse antibody 911 (Fab) was analyzed as a control. Data was analyzed using BIAevaluation software following the manufacturer's instructions. E3 bound human NGF with a KD of approximately 0.07 nM (and with a kon of about 6.0e5 M-1s-1, and a koff of about 4.2e-5s-1).

Assay [2] concerns the target T1, human NGF. The assay can be described thus: BIAcore screening assay of Fab library clones (koff). It counts as binding. The settings on record: Table 8: CDR L3 H3 combination mutations, H19-L129 template (H1H2L1L2 matured). On the procedure:
Small scale expression in 96 wells plates was optimized for screening Fab libraries. Starting from E. coli transformed with a Fab library, colonies were picked to inoculate both a master plate (agar LB+Ampicillin (50 μg/ml)+2% Glucose) and a working plate (2 ml/well, 96 well/plate containing 1.5 mL of LB+Ampicillin (50 μg/ml)+2% Glucose). Both plates were grown at 30° C. for 8-12 hours. The master plate was stored at 4° C. and the cells from the working plate were pelleted at 5000 rpm and resuspended with 1 mL of LB+Ampicillin (50 μg/ml)+1 mM IPTG to induce expression of Fabs. Cells were harvested by centrifugation after 5 h expression time at 30° C., then resuspended in 500 μL of buffer HBS-EP ([…] buffer pH 7.4, 150 mM NaCl, 0.005% P20, 3 mM EDTA). Lysis of HBS-EP resuspended cells was attained by one cycle of freezing (−80° C.) then thawing at 37° C. Cell lysates were centrifuged at 5000 rpm for 30 min to separate cell debris from supernatants containing Fabs. The supernatants were then injected into the BIAcore plasmon resonance apparatus to obtain affinity information for each Fab. Clones expressing Fabs were rescued from the master plate to sequence the DNA and for large scale Fab production and detailed characterization as described below.
as §1
A screening BIAcore assay was optimized to determine the affinity of Fab clones from libraries. Supernatants of small culture lysates were injected at 50 μl/min for 2 min. Dissociation times of 10 to 15 minutes were used for determination of a single exponential dissociation rate (koff) using BIAevaluation software. […] Clones showing improved (slower) koff values were expressed at large scale and full kinetic parameters, kon and koff, were determined on purified protein. The assay was capable of detecting differences in affinity that were approximately 2-fold or larger.
For affinity screening experiments, each library was further paired with the corresponding CDR-grafted light or heavy chain (for example, the H1/H2 library was paired with CDR-grafted light chain), the antibody was expressed, and affinity to human NGF of the individual clones was screened using the BIACORE surface plasmon resonance (SPR) system (BIAcore, Inc. Piscataway, N.J.) according to the manufacturer's instructions and as described above. koff, kon and KD were determined. Antibody clones were ranked based on koff rates, since generally most variation in affinity is seen in koff rates, and further because koff rates are independent of antibody concentration.
20-80 clones from each small library were screened using BIAcore analysis as described herein. Samples were simultaneously analyzed by BIAcore for binding affinity to NGF in one channel of the BIAcore chip and for presence of Fab by binding to a penta-histag antibody in another channel of the sensor chip, to detect the his tag at the C terminus of the heavy chain. Clones that expressed protein were classified as having the same affinity, worse affinity, better affinity or no binding, using koff to classify: The results of this analysis are shown in Table 5.
(In general: Surface plasmon resonance follows binding to a sensor surface in real time, without labels.)

Assay [3] has as its target T1, human NGF. As to the kind of experiment: Mouse E13.5 trigeminal neuron survival assay, human NGF. It counts as cell-based. The settings on record: 1.5 or 15 pM human NGF. The procedure: (§2) The ability of Fab E3 or full antibody E3 to block NGF activity was evaluated by measurement of the capacity of the antibody to inhibit NGF-dependent survival of mouse E13.5 trigeminal neurons in vitro. The trigeminal ganglion is comprised of cutaneous sensory neurons that innervate the facial region. The survival of mouse E13.5 trigeminal neurons is a sensitive assay to evaluate the NGF-blocking activity of anti-NGF antagonist antibodies because NGF is required to support survival of these neurons. For example, at saturating concentrations of NGF, the survival is close to 100% by 48 hours in culture. By contrast, less than 5% of the neurons survive by 48 hours in absence of NGF.
The survival assay was conducted as follows: time-mated pregnant Swiss Webster female mice were euthanized by CO2 inhalation. The uterine horns were removed and the embryos at embryonic stage E13.5 were extracted and decapitated. The trigeminal ganglia were dissected using electrolytically sharpened tungsten needles. The ganglia were then trypsinized, mechanically dissociated and plated at a density of 200-300 cells per well in defined, serum-free medium in 96-well plates coated with poly-L-ornithine and laminin.
After 48 hours in culture, the cells were subjected to an automated immunocytochemistry protocol performed on a Biomek FX liquid handling workstation (Beckman Coulter) as follows: fixation using 4% formaldehyde, 5% sucrose, and PBS; permeabilization using 0.3% Triton X-100 in PBS); blocking of unspecific binding sites using 5% normal goat serum, 0.11% BSA in PBS; and sequential incubation with a primary and secondary antibodies to detect neurons. The primary antibody was rabbit polyclonal antibody against the protein gene product […] (PGP9.5, Chemicon), an established neuronal phenotypic marker. The secondary antibody was Alexa Fluor 488 goat anti-rabbit (Molecular Probes), together with the nuclear dye Hoechst 33342 (Molecular Probes) to label the nuclei of all the cells present in the culture. […]

Assay [4] deals with rat NGF (Rattus norvegicus, UniProt P25427). As to the kind of experiment: Mouse E13.5 trigeminal neuron survival assay, rat NGF. The assay is classed as cell-based. The note with it: 1.5 or 15 pM rat NGF. The procedure:
as §2
The survival assay was conducted as follows: time-mated pregnant Swiss Webster female mice were euthanized by CO2 inhalation. The uterine horns were removed and the embryos at embryonic stage E13.5 were extracted and decapitated. The trigeminal ganglia were dissected using electrolytically sharpened tungsten needles. The ganglia were then trypsinized, mechanically dissociated and plated at a density of 200-300 cells per well in defined, serum-free medium in 96-well plates coated with poly-L-ornithine and laminin. […]

By koff is commonly meant the rate constant with which the complex falls apart.

T1 sequence (P01138 122-241): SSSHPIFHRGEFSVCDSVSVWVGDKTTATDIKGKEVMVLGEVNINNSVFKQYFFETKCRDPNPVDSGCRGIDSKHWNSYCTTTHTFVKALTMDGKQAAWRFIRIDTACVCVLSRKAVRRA
rat NGF, sequence (P25427 122-241): as the sequence (P01138 122-241) above, with S3T, I6V, R9M, M37T, D60A, D65E, M92T, G94D, V117A, A120G counted along it

B1: 3C: H19-L129 with CDR-L3 S91E, K92R and CDR-H3 Y101W, G103A (antibody, V domains shown)
VH: QVQLQESGPGLVKPSETLSLTCTVSGFSLIGYDLNWIRQPPGKGLEWIGIIWGDGTTDYNSAVKSRVTISKDTSKNQFSLKLSSVTAADTAVYYCARGGYWYATSYYFDYWGQGTLVTVS
VL: DIQMTQSPSSLSASVGDRVTITCRASQSISNNLNWYQQKPGKAPKLLIYYTSRFHSGVPSRFSGSGSGTDFTFTISSLQPEDIATYYCQQERTLPYTFGQGTKLEIKRT
With B1, the dissociation rate constant (koff) result in assay [1] was “about 1.4E-5 s^−1”; in assay [2] it was 1.4e-05 s⁻¹. The “blocking of human NGF-dependent trigeminal neuron survival” value in assay [3] is “strongly blocked”. Also, the “blocking of rat NGF-dependent trigeminal neuron survival” value in assay [4] is given as “strongly blocked”.
